Assay [1] deals with T1, N1-CD33-His6 (the ectodomain of human CD33 fused to the N1 domain of the g3p filamentous phage M13) (filamentous phage M13; human, UniProt P20138 18-259).
T1 construct: extracellular domain; Control protein of the QC ELISA, used for calculation of background; not shown: N1 domain of g3p of filamentous phage M13
In words: QC ELISA on immobilized control protein. (In general: An ELISA detects its analyte on a solid surface through an enzyme-linked reagent.)

The target in assay [2] is T1, N1-CD33-His6 (the ectodomain of human …). As to the kind of experiment: quality control ELISA on immobilized control protein.
Assay [3] has as its target T2, Ambra-1 peptide (synthesized peptide to which anti-Ambra-1 antibodies were raised) (human, also: conjugated to carrier protein (BSA), site not given here).
T2 construct: It was tested in native and denatured form; also called Ambra-1 antigen
T2 peptide: CGGSSRGDAAGPRGEPRNR
As to the kind of experiment: quality control ELISA, chimeric human/mouse IgG1 on immobilized Amb1-TRF and Amb1-BSA (Ambra-1 peptide conjugates), signal over background.

Assay [4] addresses T1, N1-CD33-His6 (the ectodomain of human …). As to the kind of experiment: quality control ELISA on immobilized control protein. This is another data set of the same source.
A further assay deals with T3, human Ambra-1 (human, UniProt Q9C0C7 1-1298).
T3 construct: Endogenous protein in formalin fixed paraffin embedded human skin and melanoma sections (immunohistochemistry)
T3 sequence: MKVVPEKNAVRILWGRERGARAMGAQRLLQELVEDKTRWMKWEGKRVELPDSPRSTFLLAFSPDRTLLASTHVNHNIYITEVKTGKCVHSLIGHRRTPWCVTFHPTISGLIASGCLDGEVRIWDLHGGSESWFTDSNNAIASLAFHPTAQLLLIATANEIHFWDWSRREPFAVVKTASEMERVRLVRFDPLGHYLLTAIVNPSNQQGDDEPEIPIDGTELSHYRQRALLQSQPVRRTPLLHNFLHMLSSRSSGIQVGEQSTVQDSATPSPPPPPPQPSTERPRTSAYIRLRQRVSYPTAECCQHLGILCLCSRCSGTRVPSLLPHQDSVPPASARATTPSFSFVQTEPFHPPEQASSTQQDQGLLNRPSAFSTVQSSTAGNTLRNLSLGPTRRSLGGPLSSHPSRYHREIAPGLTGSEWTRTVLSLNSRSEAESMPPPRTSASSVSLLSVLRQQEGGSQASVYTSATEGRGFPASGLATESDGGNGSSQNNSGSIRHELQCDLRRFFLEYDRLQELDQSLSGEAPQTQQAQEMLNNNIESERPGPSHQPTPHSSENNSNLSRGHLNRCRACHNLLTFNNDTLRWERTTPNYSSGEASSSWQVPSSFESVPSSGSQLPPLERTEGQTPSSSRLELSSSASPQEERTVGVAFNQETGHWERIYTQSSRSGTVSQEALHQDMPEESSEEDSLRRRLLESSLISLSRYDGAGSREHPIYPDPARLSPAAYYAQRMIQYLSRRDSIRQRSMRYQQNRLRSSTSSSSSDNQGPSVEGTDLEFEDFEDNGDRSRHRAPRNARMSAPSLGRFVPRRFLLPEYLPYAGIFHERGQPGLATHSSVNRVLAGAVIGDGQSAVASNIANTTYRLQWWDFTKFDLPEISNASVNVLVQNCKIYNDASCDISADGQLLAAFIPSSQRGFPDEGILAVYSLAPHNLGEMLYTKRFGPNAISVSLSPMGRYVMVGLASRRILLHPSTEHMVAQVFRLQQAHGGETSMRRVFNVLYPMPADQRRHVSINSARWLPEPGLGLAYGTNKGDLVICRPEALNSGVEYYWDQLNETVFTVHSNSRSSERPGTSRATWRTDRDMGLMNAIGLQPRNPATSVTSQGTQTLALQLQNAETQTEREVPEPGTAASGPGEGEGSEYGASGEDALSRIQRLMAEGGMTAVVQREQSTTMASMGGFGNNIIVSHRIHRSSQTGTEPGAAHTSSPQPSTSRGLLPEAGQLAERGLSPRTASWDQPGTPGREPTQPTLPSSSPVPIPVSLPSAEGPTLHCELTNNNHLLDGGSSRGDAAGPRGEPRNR
As to the kind of experiment: automated immunohistochemistry, DAB chromogen.

No end group written: not given here.

T1 sequence (P20138 18-259, tags left off): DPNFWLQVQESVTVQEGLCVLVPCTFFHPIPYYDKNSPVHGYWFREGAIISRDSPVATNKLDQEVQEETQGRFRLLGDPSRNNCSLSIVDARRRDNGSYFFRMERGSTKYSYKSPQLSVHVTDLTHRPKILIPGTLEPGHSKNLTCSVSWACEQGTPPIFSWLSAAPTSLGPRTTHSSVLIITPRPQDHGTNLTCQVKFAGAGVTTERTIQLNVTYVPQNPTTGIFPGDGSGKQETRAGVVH

B1: recombinant human HuCAL antibody fragment for Ambra-1 Abd33473.1 (Fab)
heavy: EVQLVQSGAEVKKPGESLKISCKGSGYSFSSYWIHWVRQMPGKGLEWMGTIFPSRSYTTYSPSFQGQVTISADKSISTAYLQWSSLKASDTAMYYCARDTPSTALKSPFDYWGQGTLVTVSSASTKGPSVFPLAPSSKSTSGGTAALGCLVKDYFPEPVTVSWNSGALTSGVHTFPAVLQSSGLYSLSSVVTVPSSSLGTQTYICNVNHKPSNTKVDKKVEPKSRTPEMPVLENRAAQGDITAPGGARRLTGDQTAALRDSLSDKPAKNIILLIGDGMGDSEITAARNYAEGAGGFFKGIDALPLTGQYTHYALNKKTGKPDYVTDSAASATAWSTGVKTYNGALGVDIHEKDHPTILEMAKAAGLATGNVSTAELQDATPAALVAHVTSRKCYGPSATSEKCPGNALEKGGKGSITEQLLNARADVTLGGGAKTFAETATAGEWQGKTLREQAQARGYQLVSDAASLNSVTEANQQKPLLGLFADGNMPVRWLGPKATYHGNIDKPAVTCTPNPQRNDSVPTLAQMTDKAIELLSKNEKGFFLQVEGASIDKQDHAANPCGQIGETVDLDEAVQRALEFAKKEGNTLVIVTADHAHASQIVAPDTKAPGLTQALNTKDGAVMVMSYGNSEEDSQEHTGSQLRIAAYGPHAANVVGLTDQTDLFYTMKAALGLKDYKDDDDKHHHHHH
light: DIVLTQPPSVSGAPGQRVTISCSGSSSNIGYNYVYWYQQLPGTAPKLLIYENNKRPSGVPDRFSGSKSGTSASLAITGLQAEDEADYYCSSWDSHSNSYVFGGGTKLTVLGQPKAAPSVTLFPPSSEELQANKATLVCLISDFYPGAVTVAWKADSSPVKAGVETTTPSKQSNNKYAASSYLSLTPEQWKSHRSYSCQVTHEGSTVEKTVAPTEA
notes: also called HuCAL antibody 33473
Consider B1, for which the binding result in assay [1] is listed as “no binding”.

B2: full length chimeric antibody AbD33047 with an IgG1 mouse Fc region (antibody, V domains shown)
VH: QVQLVQSGAEVKKPGASVKVSCKASGYTFNDYYIHWVRQAPGQGLEWMGVISPNSGKTNYAQKFQGRVTMTRDTSISTAYMELSRLRSEDTAVYYCARDLYPDSSAFDIWGQGTLVTVSS
VL: DIELTQPPSVSVSPGQTASITCSGDNLGDKYAHWYQQKPGQAPVLVIYDDNERPSGIPERFSGSNSGNTATLTISGTQAEDEADYYCQSYDSGNRVFGGGTKLTVLG
notes: also called recombinant monoclonal antibody AbD33047; HuCAL antibody AbD33047
Turning to B2, the binding result in assay [2] is recorded as “no binding”.

B3: full length chimeric antibody AbD33473 with an IgG1 mouse Fc region (antibody, V domains shown)
VH: EVQLVQSGAEVKKPGESLKISCKGSGYSFSSYWIHWVRQMPGKGLEWMGTIFPSRSYTTYSPSFQGQVTISADKSISTAYLQWSSLKASDTAMYYCARDTPSTALKSPFDYWGQGTLVTVSS
VL: DIVLTQPPSVSGAPGQRVTISCSGSSSNIGYNYVYWYQQLPGTAPKLLIYENNKRPSGVPDRFSGSKSGTSASLAITGLQAEDEADYYCSSWDSHSNSYVFGGGTKLTVLG
notes: also called recombinant monoclonal antibody AbD33473; HuCAL antibody AbD33473
For B3, the values for the binding result (in assay [3]; in assay [4]; with human Ambra-1) were “binds”, “no binding” and “binds”, respectively.
